Test results as given in patent publication US20230235058A1 (OXFORD UNIVERSITY INNOVATION, published 2023).

T1: soluble cynomolgus macaque BTLA extracellular domain (BTLA K31-R151) (cynomolgus macaque)
T1 construct: also called cynomolgus BTLA; cyno BTLA
T1 chain: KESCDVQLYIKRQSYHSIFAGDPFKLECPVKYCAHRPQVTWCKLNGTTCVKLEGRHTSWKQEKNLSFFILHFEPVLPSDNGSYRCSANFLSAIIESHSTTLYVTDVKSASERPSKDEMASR

T2: human FcγR2B (human, UniProt P31994 43-217)
T2 construct: extracellular domain; also called hFcγR2B; CD32B
T2 sequence (looked up): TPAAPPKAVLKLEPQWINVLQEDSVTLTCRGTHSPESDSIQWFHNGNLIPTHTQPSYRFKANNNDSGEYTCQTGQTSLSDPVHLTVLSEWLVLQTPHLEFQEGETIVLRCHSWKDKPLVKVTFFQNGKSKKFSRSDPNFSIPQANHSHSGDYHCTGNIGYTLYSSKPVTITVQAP

T3: human FcγR2A 131H (human, UniProt P12318 34-217)
T3 construct: extracellular domain
T3 sequence (looked up): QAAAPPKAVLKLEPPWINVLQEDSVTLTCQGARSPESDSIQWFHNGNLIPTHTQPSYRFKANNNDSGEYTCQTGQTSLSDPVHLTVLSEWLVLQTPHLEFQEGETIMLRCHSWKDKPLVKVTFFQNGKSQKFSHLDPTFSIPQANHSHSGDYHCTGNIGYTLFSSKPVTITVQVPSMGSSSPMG

B1: 3E8 (antibody, IgG1, V domains shown)
VH: QVQLQQSGAELARPGASVRLSCKASGYTFTSYAIRWVKQRTGQGLEWIGEIYPRSGNTYYNENFKGKATLTADKSSSTAYMELRSLTSEDSAVYFCARSGGASYTMDYWGQGTSVTVSS
VL: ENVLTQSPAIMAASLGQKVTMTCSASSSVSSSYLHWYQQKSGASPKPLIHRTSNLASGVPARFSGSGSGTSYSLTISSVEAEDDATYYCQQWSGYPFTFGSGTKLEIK
notes: mIgG1; also called clone 3E8
B2: 26B1 (antibody, IgG1, V domains shown)
VH: EVQLQQSGPVLVKPGASVKMSCKASGYTFTDYYLNWVKQSHGKSLEWIGLIDPYNGGSSCNQKFKGKATLTVDKSSSTAYMDLNSLTSEDSAVYYCARGNAMDYWGQGTSVTVSS
VL: DIVMTQSHKFMSTSVGDRVSITCKASQDVSTAVAWYQEKPGQSPKLLIYWASTRHTGVPDRFTGSGSGTDYILNISSVQAEDLALYYCQQHYIIPYMFGGGTKLEIK
notes: mIgG1
B3: 16H2 (antibody, IgG1, V domains shown)
VH: EVQLQQSGPELVQPGASVKISCKASGYTFTDYYMIWVKQSHGKSLEWIGNINPNNGGTTYNQKFKGKATLTVDKSSSTAYMGLPSLTSEDSAVYYCARGGLRPLYFDYWGQGTTLTVSS
VL: NIVMTQSPKSMSMSVGERVTLSCKASENVDTYVSWYQQKPEQSPKLLIYGASNRYTGVPDRFTGSGSATDFTLTISSVQAEDLADYHCGQSYSYPLTFGAGTKLELI
notes: mIgG1
B4: 6.2 (antibody, IgG1, V domains shown)
VH: EVKLVESGGGLVKPGGSLKLSCAASGFTLSSYGMSWVRQIPEKRLEWVASIRSDGNTYYPDSVKGRFIISRDNARNILYLQMSSLRSEDTAMYYCTRGGYYGSSPYYWGQGTTLTVSS
VL: DIVMSQSPSSLPVSVGEKISMTCKSSQSLLYSSNQKNYLAWYQQKPGQSPKLLIYWASTRDSGVPDRFIGSGSGTDFTLTINSVKAEDLAVYYCQQYYNYLTFGAGTKLELK
notes: mIgG1; also called clone 6.2; parent clone 6.2
B5: 14D4 (antibody, IgG1, V domains shown)
VH: QVQLQQPGAELVKPRASVKLSCKASGYTFTSYWMHWVKQRPGQGLEWIGMIHPNNGIPNYNEKFKSKATLTVDKSSTTAYMQLSSLTSEDSAVYHCAREGYYGSEGYFDVWGTGTTVTVSS
VL: QIVLTQSPAIMSASPGEKVTMTCSASSSISYIHWYQQKPGTSPKRWIYDTSKLASGVPARFSGSGSGTSYSLTISSMEAEDAATYYCHQRSTYPYTFGGGTKLEIK
notes: mIgG1
B6: humanised 2.8.6 hIgG1 delta ab P238D (antibody)
chain 1: QVTLKESGPALVKPTQTLTLTCTVSGFSLTTYGVHWIRQPPGKALEWLGVMWPGGRTSYNPSLKSRLTITKDNSKSQVVLTMTNMDPVDTATYYCVRGDYEYDYYAMDYWGQGTLVTVSSASTKGPSVFPLAPSSKSTSGGTAALGCLVKDYFPEPVTVSWNSGALTSGVHTFPAVLQSSGLYSLSSVVTVPSSSLGTQTYICNVNHKPSNTKVDKKVEPKSCDKTHTCPPCPAPPVAGDSVFLFPPKPKDTLMISRTPEVTCVVVDVSHEDPEVKFNWYVDGVEVHNAKTKPREEQYNSTYRVVSVLTVLHQDWLNGKEYKCKVSNKGLPSSIEKTISKAKGQPREPQVYTLPPSRDELTKNQVSLTCLVKGFYPSDIAVEWESNGQPENNYKTTPPVLDSDGSFFLYSKLTVDKSRWQQGNVFSCSVMHEALHNHYTQKSLSLSP
chain 2: EIVLTQSPATLSLSPGERATLSCRASSSVSYMHWYQQKPGQAPRPLIYATSNRATGIPARFSGSGSGTDYTLTISSLEPEDFAVYYCHQWSSNPYTFGQGTKLEIKRTVAAPSVFIFPPSDEQLKSGTASVVCLLNNFYPREAKVQWKVDNALQSGNSQESVTEQDSKDSTYSLSSTLTLSKADYEKHKVYACEVTHQGLSSPVTKSFNRGEC
B7: 27G9 (antibody, IgG1, V domains shown)
VH: EVQLQQSVAELVRPGASVKLSCTASGFNIKNTYMHWVKQRPEQGLEWIGRIDPANGNTKYAPKFQGKATITADTSSNTAYLQLSSLTSEDTAIYYCALTYYGSSQYYFDYWGQGTTLTVSS
VL: not shown
notes: mIgG1
B8: 26F3 (antibody, IgG1, V domains shown)
VH: EVQLQQSVAELVRPGASVKLSCTASGFNIKNTYMYWVKQRPEQGLEWIGRIDPANGNTKYAPKFQGKATITADTSSNTAYLQLSSLTSEDTAIYYCALLYYGSSYDYFDYWGQGTTLTVSS
VL: not shown
notes: mIgG1
B9: 1H6 (antibody, IgG1, V domains shown)
VH: EVQLQQSVAELVRPGASVKLSCTASGFNIKNTYMHWVKQRPEQGLEWIGRIDPANGNTKYDPKFQGKATITADTSSNTAYVQLSSLTSEDTAIYYCALTYYGSSQHYFDYWGQGTTLTVSS
VL: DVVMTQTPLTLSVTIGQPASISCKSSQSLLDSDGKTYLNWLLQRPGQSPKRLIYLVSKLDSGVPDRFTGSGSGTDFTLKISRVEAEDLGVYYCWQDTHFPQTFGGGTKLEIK
notes: mIgG1
B10: 8C4 (antibody, IgG1, V domains shown)
VH: DVQLQESGPGMVKPSQSLSLTCTVTGYSITSGYDWHWIRHFPGNKLEWMGYISYSGSTNYNPSLKSRISITHDTSKNHFFLKLNSVTTEDTATYYCARGTPVVAEDYFDYWGQGTTLTVSS
VL: QAVVTQESALSTSPGETVTLTCRSSTGAVTTSNYANWVQEKPDHLFTGLIGATNNRAPGVPARFSGSLIGDKAALTITGAQTEDEAIYFCALWYSNHLVFGGGTKLTVLG
notes: mIgG1

Tests used:
[1] = target: T1, soluble cynomolgus macaque BTLA …; assay: SPR 37C, mAb captured, BTLA ECD analyte;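 also: Anti-BTLA mouse antibodies captured on a sensor chip via polyclonal anti-mouse IgG, isotype control antibody in reference channel, rates fitted after reference and blank subtraction to derive Kd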
Protocol: (§1) Mouse antibody capture kit (GE Healthcare) was used to coat a Series S CMS Sensor Chip (GE Healthcare) with polyclonal anti-mouse IgG. Anti-BTLA antibody was then captured onto the biosensor surface and a negative control antibody (clone Mopc21; Biolegend) captured in the reference channel. […] Association and dissociation rates were fitted using BiaEvaluation Software (GE Healthcare) after reference and blank subtractions, and dissociation constants were calculated (FIG. 1b).

[2] = target: T4, monomeric soluble human BTLA extracellular domain (BTLA K31-R151) (human, UniProt Q7Z6A9 31-151); assay: SPR 37C, mAb captured, BTLA ECD analyte;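 also: Anti-BTLA mouse antibodies captured on a sensor chip via polyclonal anti-mouse IgG, isotype control antibody in reference channel, rates fitted after reference and blank subtraction to derive Kd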
T4 construct: also called hBTLA; monomeric BTLA
Protocol: as §1

[3] = target: chimeric BTLA of humanised-BTLA mice (human extracellular region, murine transmembrane and signaling … (human; mouse, UniProt Q7TSA3 184-306, limits assumed); assay: cell-based or functional assay
chimeric BTLA of humanised-BTLA mice (human extracellular region, murine transmembrane and signaling …, sequence (Q7TSA3 other isoform, or with tags, fused parts or gaps mutant limits assumed): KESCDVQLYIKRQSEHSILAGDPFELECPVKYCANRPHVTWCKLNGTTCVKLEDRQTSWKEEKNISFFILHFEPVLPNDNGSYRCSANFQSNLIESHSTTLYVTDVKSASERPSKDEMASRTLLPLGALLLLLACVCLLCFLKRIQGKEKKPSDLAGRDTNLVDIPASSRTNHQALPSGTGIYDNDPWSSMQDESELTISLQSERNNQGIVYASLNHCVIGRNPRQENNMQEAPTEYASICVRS

[4] = target: full length human BTLA expressed on cells (human, UniProt Q7Z6A9 31-289); assay: cell-based or functional assay
human FcγR2B = target: T2, human FcγR2B; assay: SPR 37C, steady state;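 also: fc variants captured on chip-bound human BTLA ectodomain, recombinant FcγR ectodomains injected as analyte at varied concentrations, double-referenced equilibrium binding fitted to Langmuir model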
human FcγR2A 131H = target: T3, human FcγR2A 131H; assay: SPR 37C, steady state;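 also: fc variants captured on chip-bound human BTLA ectodomain, recombinant FcγR ectodomains injected as analyte at varied concentrations, double-referenced equilibrium binding fitted to Langmuir model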
For AntiCD3/CD28 (CD4 T cell proliferation) repeat 1 in this document: test concentration or dose not given here.
For AntiCD3/CD28 (CD4 T cell proliferation) repeat 2 in this document: test concentration or dose not given here.
For AntiCD3/CD28 (CD69+ CD4 T cells) repeat 1 in this document: test concentration or dose not given here.
For AntiCD3/CD28 (CD69+ CD4 T cells) repeat 2 in this document: test concentration or dose not given here.

Binder | Kd [1] [nM] | Kd [2] [nM] | koff [2] [s⁻¹] | kon [2] [M⁻¹ s⁻¹] | AntiCD3/CD28 (CD4 T cell proliferation) repeat 1 [3] [% inhibition] | AntiCD3/CD28 (CD4 T cell proliferation) repeat 2 [3] [% inhibition] | AntiCD3/CD28 (CD69+ CD4 T cells) repeat 1 [3] [% inhibition] | AntiCD3/CD28 (CD69+ CD4 T cells) repeat 2 [3] [% inhibition] | MLR (CD4 T cell proliferation) repeat 1 [3] [% inhibition] | MLR (CD4 T cell proliferation) repeat 2 [3] [% inhibition] | T cell reporter (NFκB signaling) [4] [% inhibition] | Kd (human FcγR2B) [nM] | Kd (human FcγR2A 131H) [nM]
B1 | 607 | 112 | 0.0608 | 543000 | 27 | 35 | 52 | 64 | 43 | 35 | 30 |  | 
B2 | 168 |  |  |  | 11 | 19 | 35 | 30 | 12 | 10 | 29 |  | 
B3 | 160 |  |  |  | 11 | 23 | 51 | 60 | 40 | 26 | 29 |  | 
B4 | 9.71 | 1.7 | 0.00107 | 630000 | 19 | 21 | 53 | 61 | 31 | 35 | 26 |  | 
B5 | 1.83 |  |  |  | 24 | 29 | 43 | 52 | 39 | 26 | 16 |  | 
B6 |  |  |  |  |  |  |  |  |  |  |  | 876000 | 771000
B7 | 654 | 437 | 0.0838 | 192000 | 10 | 13 | 24 | 22 | 9 | 8 | 24 |  | 
B8 | 810 | 2200 | 2.02 | 921000 | 4 | 0 | 19 | 17 | 9 | -5 | 20 |  | 
B9 | 6.08 |  |  |  | 26 | 19 | 47 | 53 | 31 | 16 | 26 |  | 
B10 | 161 |  |  |  | 12 | 4 | 29 | 29 | 42 | -2 | 21 |  | 
